B1: glyceraldehyde 3-phosphate dehydrogenase (GapA) (enzyme, B. subtilis 168, UniProt P09124 1-335, looked up)
chain: MAVKVGINGFGRIGRNVFRAALNNPEVEVVAVNDLTDANMLAHLLQYDSVHGKLDAEVSVDGNNLVVNGKTIEVSAERDPAKLSWGKQGVEIVVESTGFFTKRADAAKHLEAGAKKVIISAPANEEDITIVMGVNEDKYDAANHDVISNASCTTNCLAPFAKVLNDKFGIKRGMMTTVHSYTNDQQILDLPHKDYRRARAAAENIIPTSTGAAKAVSLVLPELKGKLNGGAMRVPTPNVSLVDLVAELNQEVTAEEVNAALKEAAEGDLKGILGYSEEPLVSGDYNGNKNSSTIDALSTMVMEGSMVKVISWYDNESGYSNRVVDLAAYIAKKGL
notes: glyceraldehyde 3-phosphate dehydrogenase (GapA), B. subtilis; gene amplified from B. subtilis 168 chromosomal DNA; source: B. subtilis 1A751, overexpressed from a pMAR-derived plasmid; cytoplasmic fraction and culture supernatant, not purified
B2: arginase (RocF) (enzyme, B. subtilis 168, UniProt P39138 1-296, looked up)
chain: MDKTISVIGMPMDLGQARRGVDMGPSAIRYAHLIERLSDMGYTVEDLGDIPINREKIKNDEELKNLNSVLAGNEKLAQKVNKVIEEKKFPLVLGGDHSIAIGTLAGTAKHYDNLGVIWYDAHGDLNTLETSPSGNIHGMPLAVSLGIGHESLVNLEGYAPKIKPENVVIIGARSLDEGERKYIKESGMKVYTMHEIDRLGMTKVIEETLDYLSACDGVHLSLDLDGLDPNDAPGVGTPVVGGISYRESHLAMEMLYDAGIITSAEFVEVNPILDHKNKTGKTAVELVESLLGKKLL
notes: arginase (RocF), B. subtilis; gene amplified from B. subtilis 168 chromosomal DNA; source: B. subtilis 1A751, overexpressed from a pMAR-derived plasmid; cytoplasmic fraction and culture supernatant, not purified
B3: vegetative catalase (KatA) (enzyme, B. subtilis 168, UniProt P26901 1-483, looked up)
chain: MSSNKLTTSWGAPVGDNQNSMTAGSRGPTLIQDVHLLEKLAHFNRERVPERVVHAKGAGAHGYFEVTNDVTKYTKAAFLSEVGKRTPLFIRFSTVAGELGSADTVRDPRGFAVKFYTEEGNYDIVGNNTPVFFIRDAIKFPDFIHTQKRDPKTHLKNPTAVWDFWSLSPESLHQVTILMSDRGIPATLRHMHGFGSHTFKWTNAEGEGVWIKYHFKTEQGVKNLDVNTAAKIAGENPDYHTEDLFNAIENGDYPAWKLYVQIMPLEDANTYRFDPFDVTKVWSQKDYPLIEVGRMVLDRNPENYFAEVEQATFSPGTLVPGIDVSPDKMLQGRLFAYHDAHRYRVGANHQALPINRARNKVNNYQRDGQMRFDDNGGGSVYYEPNSFGGPKESPEDKQAAYPVQGIADSVSYDHYDHYTQAGDLYRLMSEDERTRLVENIVNAMKPVEKEEIKLRQIEHFYKADPEYGKRVAEGLGLPIKKDS
notes: vegetative catalase (KatA), B. subtilis; gene amplified from B. subtilis 168 chromosomal DNA; source: B. subtilis 1A751, overexpressed from a pMAR-derived plasmid; cytoplasmic fraction and culture supernatant, not purified
B4: general stress protein (YceD) (natural protein, B. subtilis 168, UniProt P80875 1-193, looked up)
chain: MTISLAKGQKVDLTKTNPGLSKVVVGLGWDTNKYDGGHDFDLDSSVFLLDAAGKCASPNDFIFYNQLEGGNGSVVHSGDNLTGAGEGDDENVKVNLSAVPANIDKISFVITIHDAEARSQNFGQVSNAFVRIVNEETNEELIRYDLAEDFSIETAIIAGELYRHNGEWKFSAIGSGYQGGLARIATDYGLQVG
notes: general stress protein YceD, B. subtilis; gene amplified from B. subtilis 168 chromosomal DNA; Seen as monomer and as dimer; source: B. subtilis 1A751, overexpressed from a pMAR-derived plasmid; cytoplasmic fraction and culture supernatant, not purified
B5: superoxide dismutase (SodA) (enzyme, B. subtilis 168, UniProt P54375 1-202, looked up)
chain: MAYELPELPYAYDALEPHIDKETMTIHHTKHHNTYVTNLNKAVEGNTALANKSVEELVADLDSVPENIRTAVRNNGGGHANHKLFWTLLSPNGGGEPTGALAEEINSVFGSFDKFKEQFAAAAAGRFGSGWAWLVVNNGKLEITSTPNQDSPLSEGKTPILGLDVWEHAYYLNYQNRRPDYISAFWNVVNWDEVARLYSEAK
notes: superoxide dismutase (SodA), B. subtilis; gene amplified from B. subtilis 168 chromosomal DNA; source: B. subtilis 1A751, overexpressed from a pMAR-derived plasmid; cytoplasmic fraction and culture supernatant, not purified
B6: 1-pyrroline-5-carboxylate dehydrogenase (YcgN) (enzyme, B. subtilis 168, UniProt P94391 1-515, looked up)
chain: MTTPYKHEPFTNFQDQNNVEAFKKALATVSEYLGKDYPLVINGERVETEAKIVSINPADKEEVVGRVSKASQEHAEQAIQAAAKAFEEWRYTSPEERAAVLFRAAAKVRRRKHEFSALLVKEAGKPWNEADADTAEAIDFMEYYARQMIELAKGKPVNSREGEKNQYVYTPTGVTVVIPPWNFLFAIMAGTTVAPIVTGNTVVLKPASATPVIAAKFVEVLEESGLPKGVVNFVPGSGAEVGDYLVDHPKTSLITFTGSREVGTRIFERAAKVQPGQQHLKRVIAEMGGKDTVVVDEDADIELAAQSIFTSAFGFAGQKCSAGSRAVVHEKVYDQVLERVIEITESKVTAKPDSADVYMGPVIDQGSYDKIMSYIEIGKQEGRLVSGGTGDDSKGYFIKPTIFADLDPKARLMQEEIFGPVVAFCKVSDFDEALEVANNTEYGLTGAVITNNRKHIERAKQEFHVGNLYFNRNCTGAIVGYHPFGGFKMSGTDSKAGGPDYLALHMQAKTISEMF
notes: 1-pyrroline-5-carboxylate dehydrogenase (YcgN), B. subtilis; gene amplified from B. subtilis 168 chromosomal DNA; source: B. subtilis 1A751, overexpressed from a pMAR-derived plasmid; cytoplasmic fraction and culture supernatant, not purified
B7: molecular chaperone (GroEL) (natural protein, B. subtilis 168, UniProt P28598 1-544, looked up)
chain: MAKEIKFSEEARRAMLRGVDALADAVKVTLGPKGRNVVLEKKFGSPLITNDGVTIAKEIELEDAFENMGAKLVAEVASKTNDVAGDGTTTATVLAQAMIREGLKNVTAGANPVGVRKGMEQAVAVAIENLKEISKPIEGKESIAQVAAISAADEEVGSLIAEAMERVGNDGVITIEESKGFTTELEVVEGMQFDRGYASPYMVTDSDKMEAVLDNPYILITDKKITNIQEILPVLEQVVQQGKPLLLIAEDVEGEALATLVVNKLRGTFNAVAVKAPGFGDRRKAMLEDIAVLTGGEVITEDLGLDLKSTQIAQLGRASKVVVTKENTTIVEGAGETDKISARVTQIRAQVEETTSEFDREKLQERLAKLAGGVAVIKVGAATETELKERKLRIEDALNSTRAAVEEGIVSGGGTALVNVYNKVAAVEAEGDAQTGINIVLRALEEPIRQIAHNAGLEGSVIVERLKNEEIGVGFNAATGEWVNMIEKGIVDPTKVTRSALQNAASVAAMFLTTEAVVADKPEENGGGAGMPDMGGMGGMGGMM
notes: molecular chaperone GroEL, B. subtilis; gene amplified from B. subtilis 168 chromosomal DNA; source: B. subtilis 1A751, overexpressed from a pMAR-derived plasmid; cytoplasmic fraction and culture supernatant, not purified
B8: pyruvate dehydrogenase PdhD (enzyme, B. subtilis 168, UniProt P21880 1-470, looked up)
chain: MVVGDFPIETDTLVIGAGPGGYVAAIRAAQLGQKVTVVEKATLGGVCLNVGCIPSKALINAGHRYENAKHSDDMGITAENVTVDFTKVQEWKASVVNKLTGGVAGLLKGNKVDVVKGEAYFVDSNSVRVMDENSAQTYTFKNAIIATGSRPIELPNFKYSERVLNSTGALALKEIPKKLVVIGGGYIGTELGTAYANFGTELVILEGGDEILPGFEKQMSSLVTRRLKKKGNVEIHTNAMAKGVEERPDGVTVTFEVKGEEKTVDADYVLITVGRRPNTDELGLEQVGIEMTDRGIVKTDKQCRTNVPNIYAIGDIIEGPPLAHKASYEGKIAAEAIAGEPAEIDYLGIPAVVFSEPELASVGYTEAQAKEEGLDIVAAKFPFAANGRALSLNETDGFMKLITRKEDGLVIGAQIAGASASDMISELSLAIEGGMTAEDIAMTIHAHPTLGEITMEAAEVAIGSPIHIVK
notes: pyruvate dehydrogenase PdhD, B. subtilis; gene amplified from B. subtilis 168 chromosomal DNA; source: B. subtilis 1A751, overexpressed from a pMAR-derived plasmid; cytoplasmic fraction and culture supernatant, not purified
B9: fructose 1,6-bisphosphate aldolase (FbaA) (enzyme, B. subtilis 168, UniProt P13243 1-285, looked up)
chain: MPLVSMTEMLNTAKEKGYAVGQFNLNNLEFTQAILQAAEEEKSPVILGVSEGAGRYMGGFKTVVAMVKALMEEYKVTVPVAIHLDHGSSFESCAKAIHAGFTSVMIDASHHPFEENVATTAKVVELAHFHGVSVEAELGTVGGQEDDVIAEGVIYADPKECQELVERTGIDCLAPALGSVHGPYKGEPNLGFKEMEEIGKSTGLPLVLHGGTGIPTADIKKSISLGTAKINVNTENQISSAKAVRETLAAKPDEYDPRKYLGPAREAIKETVIGKMREFGSSNQA
notes: fructose 1,6-bisphosphate aldolase (FbaA), B. subtilis; gene amplified from B. subtilis 168 chromosomal DNA; source: B. subtilis 1A751, overexpressed from a pMAR-derived plasmid; cytoplasmic fraction and culture supernatant, not purified
B10: transaldolase (YwjH) (enzyme, B. subtilis 168, UniProt P19669 1-212, looked up)
chain: MLFFVDTANIDEIREANELGILAGVTTNPSLVAKEANVSFHDRLREITDVVKGSVSAEVISLKAEEMIEEGKELAKIAPNITVKIPMTSDGLKAVRALTDLGIKTNVTLIFNANQALLAARAGATYVSPFLGRLDDIGHNGLDLISEVKQIFDIHGLDTQIIAASIRHPQHVTEAALRGAHIGTMPLKVIHALTKHPLTDKGIEQFLADWNK
notes: transaldolase (YwjH), B. subtilis; gene amplified from B. subtilis 168 chromosomal DNA; source: B. subtilis 1A751, overexpressed from a pMAR-derived plasmid; cytoplasmic fraction and culture supernatant, not purified

Molecular target: the molecule itself
Experiment: native gel or EMSA; blue native PAGE (BN-PAGE) of the soluble cytoplasmic fraction and the culture supernatant of B. subtilis after 24 h of cultivation; non-reducing sample buffer, Coomassie blue; mass estimated within ±15%

Protein	stoichiometry N
B1	3
B2	5
B3	4
B4	2
B5	2
B6	4
B7	2
B8	2
B9	5
B10	7

Source: publication PMC5343618, “Multimer recognition and secretion by the non-classical secretion pathway in Bacillus subtilis” (Scientific Reports, 2017)
